Measurements taken from patent US20160340420A1 (Novartis, published 2016).

What was measured:
biotinylated VEGF [1] = molecular target: T1, biotinylated VEGF (human, UniProt P15692-4 27-191, limits assumed, biotinylated (sites not given)); assay: competition ELISA with VEGFR2/Fc for biotinylated VEGF; 6% 1008, 9% sucrose, 20 mM citrate, 0.1% PS80, pH 6.25; 25 C, 8 weeks
T1 construct: The ELISA paragraph says only 'biotinylated VEGF'; also called human vascular endothelial growth factor A; VEGF-A
T1 sequence (P15692 other isoform, or with tags, fused parts or gaps limits assumed): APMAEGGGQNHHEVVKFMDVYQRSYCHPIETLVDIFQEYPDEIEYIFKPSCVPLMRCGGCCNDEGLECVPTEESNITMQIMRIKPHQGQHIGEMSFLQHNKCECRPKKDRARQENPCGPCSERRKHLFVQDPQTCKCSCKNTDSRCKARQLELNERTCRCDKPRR
Method: (§1) The competition ELISA was used for potency testing.
(§2) The samples were stored at 2-8° C., 25° C., 40° C. and light cabinet (LC); they also went through three cycles of freeze-thaw (FT). The samples were pulled according to the schedule shown in Table 30, and analyzed by various analytical methods.

biotinylated VEGF [2] = molecular target: T1, biotinylated VEGF; assay: competition ELISA with VEGFR2/Fc for biotinylated VEGF; 6% 1008, 9% sucrose, 20 mM citrate, 0.1% PS80, pH 6.25; 40 C, 4 weeks
Method: as §1, §2

biotinylated VEGF [3] = molecular target: T1, biotinylated VEGF; assay: competition ELISA with VEGFR2/Fc for biotinylated VEGF; 6% 1008, 9% sucrose, 20 mM citrate, 0.1% PS80, pH 6.25; 2-8 C, 0 weeks
Method: as §1, §2

biotinylated VEGF [4] = molecular target: T1, biotinylated VEGF; assay: competition ELISA with VEGFR2/Fc for biotinylated VEGF; 6% 1008, 9% sucrose, 20 mM citrate, 0.1% PS80, pH 6.25; 2-8 C, 8 weeks
Method: as §1, §2

biotinylated VEGF [5] = molecular target: T1, biotinylated VEGF; assay: competition ELISA with VEGFR2/Fc for biotinylated VEGF; 6% 1008, 9% sucrose, 20 mM citrate, 0.1% PS80, pH 6.25; 25 C, 12 weeks
Method: as §1, §2

biotinylated VEGF [6] = molecular target: T1, biotinylated VEGF; assay: competition ELISA with VEGFR2/Fc for biotinylated VEGF; 6% 1008, 9% sucrose, 20 mM citrate, 0.1% PS80, pH 6.25; 25 C, 26 weeks
Method: as §1, §2

biotinylated VEGF [7] = molecular target: T1, biotinylated VEGF; assay: competition ELISA with VEGFR2/Fc for biotinylated VEGF; 6% 1008, 9% sucrose, 20 mM citrate, 0.1% PS80, pH 6.25; 2-8 C, 12 weeks
Method: as §1, §2

biotinylated VEGF [8] = molecular target: T1, biotinylated VEGF; assay: competition ELISA with VEGFR2/Fc for biotinylated VEGF; 6% 1008, 9% sucrose, 20 mM citrate, 0.1% PS80, pH 6.25; 2-8 C, 26 weeks
Method: as §1, §2

biotinylated VEGF [9] = molecular target: T1, biotinylated VEGF; assay: competition ELISA with VEGFR2/Fc for biotinylated VEGF; 6% 1008, 9% sucrose, 20 mM citrate, 0.1% PS80, pH 6.25; 40 C column, 0 weeks (initial)
Method: as §1, §2

biotinylated VEGF [10] = molecular target: T1, biotinylated VEGF; assay: competition ELISA with VEGFR2/Fc for biotinylated VEGF; control formulation (60 mg/ml 1008, 20 mM citrate, 0.001% PS20, pH 6.25), 5 weeks at 40 C
Method: as §1
The control formulation was filtered through 0.2 um syringe filter and stored at 40° C., ambient room temperature, and refrigerator. The samples were pulled at 0, 2 and 5 weeks for 40° C. samples, and 26 weeks for samples stored at ambient room temperature and refrigerator. The selected stability samples were tested for pH, osmolality, content by A280, SEC, IEX CGE and ELISA.

ELISA (relative potency against 1008 reference standard) (biotinylated VEGF [1]): 1.1 ratio to 1008 reference standard
ELISA (relative potency against 1008 reference standard) (biotinylated VEGF [2]): 0.87 ratio to 1008 reference standard
ELISA (relative potency against 1008 reference standard) (biotinylated VEGF [3]): 0.86 ratio to 1008 reference standard
ELISA (relative potency against 1008 reference standard) (biotinylated VEGF [4]): 1.2 ratio to 1008 reference standard
ELISA (relative potency against 1008 reference standard) (biotinylated VEGF [5]): 0.92 ratio to 1008 reference standard
ELISA (relative potency against 1008 reference standard) (biotinylated VEGF [6]): 1.1 ratio to 1008 reference standard
ELISA (relative potency against 1008 reference standard) (biotinylated VEGF [7]): 0.97 ratio to 1008 reference standard
ELISA (relative potency against 1008 reference standard) (biotinylated VEGF [8]): 1.1 ratio to 1008 reference standard
ELISA (relative potency against 1008 reference standard) (biotinylated VEGF [9]): 0.86 ratio to 1008 reference standard
ELISA (relative potency against 1008 reference standard) (biotinylated VEGF [10]): 1 ratio to 1008 reference standard
B1: 1008 antibody (scFv)
scFv: MEIVMTQSPSTLSASVGDRVIITCQASEIIHSWLAWYQQKPGKAPKLLIYLASTLASGVPSRFSGSGSGAEFTLTISSLQPDDFATYYCQNVYLASTNGANFGQGTKLTVLGGGGGSGGGGSGGGGSGGGGSEVQLVESGGGLVQPGGSLRLSCTASGFSLTDYYYMTWVRQAPGKGLEWVGFIDPDDDPYYATWAKGRFTISRDNSKNTLYLQMNSLRAEDTAVYYCAGGDHNSGWGLDIWGQGTLVTVSS
notes: also called anti-VEGF antibody
